According to patent US20250043020A1:

Tests used:
[1] = biological target: human Ankyrin Repeat Domain-Containing Protein 30B (NY-BR-1.1), full-length, on cells (human) (UniProt Q9BXX2); assay: flow cytometry on NY-BR-1.1 transfected Bosc23 cells; PE anti-mouse Fcγ subclass I secondary
[2] = biological target: human Ankyrin Repeat Domain-Containing Protein 30A (NY-BR-1), full-length, on cells (human) (UniProt Q9BXX3); assay: flow cytometry on NY-BR-1 transfected Bosc23 cells; PE anti-mouse Fcγ subclass I secondary
Sequence of UniProt Q9BXX3 (Q9BXX3 whole entry, the tested form may be a part): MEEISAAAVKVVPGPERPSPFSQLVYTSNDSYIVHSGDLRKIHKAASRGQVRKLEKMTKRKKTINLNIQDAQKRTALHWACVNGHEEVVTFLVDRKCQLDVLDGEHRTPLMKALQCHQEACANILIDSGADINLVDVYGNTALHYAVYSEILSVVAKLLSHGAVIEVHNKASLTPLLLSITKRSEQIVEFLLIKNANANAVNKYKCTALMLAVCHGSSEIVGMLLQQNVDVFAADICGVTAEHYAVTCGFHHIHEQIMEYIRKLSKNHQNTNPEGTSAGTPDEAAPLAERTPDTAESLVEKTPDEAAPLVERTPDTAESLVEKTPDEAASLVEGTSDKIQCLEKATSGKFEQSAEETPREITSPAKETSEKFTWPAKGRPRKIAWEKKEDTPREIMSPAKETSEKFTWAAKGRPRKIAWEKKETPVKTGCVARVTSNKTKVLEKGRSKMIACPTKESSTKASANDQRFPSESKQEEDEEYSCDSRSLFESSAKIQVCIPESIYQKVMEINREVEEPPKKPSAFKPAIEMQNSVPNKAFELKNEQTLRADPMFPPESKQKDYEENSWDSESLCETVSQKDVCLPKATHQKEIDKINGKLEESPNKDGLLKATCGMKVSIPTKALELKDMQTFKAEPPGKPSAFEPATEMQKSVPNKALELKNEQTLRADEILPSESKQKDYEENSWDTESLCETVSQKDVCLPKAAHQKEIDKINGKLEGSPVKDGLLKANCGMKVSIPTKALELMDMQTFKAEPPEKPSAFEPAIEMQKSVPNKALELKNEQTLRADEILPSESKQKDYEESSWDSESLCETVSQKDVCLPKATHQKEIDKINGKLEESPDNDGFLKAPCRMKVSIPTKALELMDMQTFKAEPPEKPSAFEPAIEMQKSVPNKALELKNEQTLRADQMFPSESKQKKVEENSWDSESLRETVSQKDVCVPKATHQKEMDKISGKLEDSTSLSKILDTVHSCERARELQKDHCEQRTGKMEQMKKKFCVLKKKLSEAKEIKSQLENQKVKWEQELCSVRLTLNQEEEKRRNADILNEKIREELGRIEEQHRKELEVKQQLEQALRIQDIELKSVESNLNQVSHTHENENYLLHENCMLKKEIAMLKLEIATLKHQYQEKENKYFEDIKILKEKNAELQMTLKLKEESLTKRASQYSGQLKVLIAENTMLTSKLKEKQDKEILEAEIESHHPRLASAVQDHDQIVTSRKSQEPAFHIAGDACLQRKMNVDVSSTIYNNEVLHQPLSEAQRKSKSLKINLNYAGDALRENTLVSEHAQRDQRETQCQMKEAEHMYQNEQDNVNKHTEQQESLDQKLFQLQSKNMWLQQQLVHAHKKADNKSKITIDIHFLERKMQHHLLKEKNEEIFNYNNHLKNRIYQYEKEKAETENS

Sequence of UniProt Q9BXX2 (Q9BXX2 whole entry, the tested form may be a part): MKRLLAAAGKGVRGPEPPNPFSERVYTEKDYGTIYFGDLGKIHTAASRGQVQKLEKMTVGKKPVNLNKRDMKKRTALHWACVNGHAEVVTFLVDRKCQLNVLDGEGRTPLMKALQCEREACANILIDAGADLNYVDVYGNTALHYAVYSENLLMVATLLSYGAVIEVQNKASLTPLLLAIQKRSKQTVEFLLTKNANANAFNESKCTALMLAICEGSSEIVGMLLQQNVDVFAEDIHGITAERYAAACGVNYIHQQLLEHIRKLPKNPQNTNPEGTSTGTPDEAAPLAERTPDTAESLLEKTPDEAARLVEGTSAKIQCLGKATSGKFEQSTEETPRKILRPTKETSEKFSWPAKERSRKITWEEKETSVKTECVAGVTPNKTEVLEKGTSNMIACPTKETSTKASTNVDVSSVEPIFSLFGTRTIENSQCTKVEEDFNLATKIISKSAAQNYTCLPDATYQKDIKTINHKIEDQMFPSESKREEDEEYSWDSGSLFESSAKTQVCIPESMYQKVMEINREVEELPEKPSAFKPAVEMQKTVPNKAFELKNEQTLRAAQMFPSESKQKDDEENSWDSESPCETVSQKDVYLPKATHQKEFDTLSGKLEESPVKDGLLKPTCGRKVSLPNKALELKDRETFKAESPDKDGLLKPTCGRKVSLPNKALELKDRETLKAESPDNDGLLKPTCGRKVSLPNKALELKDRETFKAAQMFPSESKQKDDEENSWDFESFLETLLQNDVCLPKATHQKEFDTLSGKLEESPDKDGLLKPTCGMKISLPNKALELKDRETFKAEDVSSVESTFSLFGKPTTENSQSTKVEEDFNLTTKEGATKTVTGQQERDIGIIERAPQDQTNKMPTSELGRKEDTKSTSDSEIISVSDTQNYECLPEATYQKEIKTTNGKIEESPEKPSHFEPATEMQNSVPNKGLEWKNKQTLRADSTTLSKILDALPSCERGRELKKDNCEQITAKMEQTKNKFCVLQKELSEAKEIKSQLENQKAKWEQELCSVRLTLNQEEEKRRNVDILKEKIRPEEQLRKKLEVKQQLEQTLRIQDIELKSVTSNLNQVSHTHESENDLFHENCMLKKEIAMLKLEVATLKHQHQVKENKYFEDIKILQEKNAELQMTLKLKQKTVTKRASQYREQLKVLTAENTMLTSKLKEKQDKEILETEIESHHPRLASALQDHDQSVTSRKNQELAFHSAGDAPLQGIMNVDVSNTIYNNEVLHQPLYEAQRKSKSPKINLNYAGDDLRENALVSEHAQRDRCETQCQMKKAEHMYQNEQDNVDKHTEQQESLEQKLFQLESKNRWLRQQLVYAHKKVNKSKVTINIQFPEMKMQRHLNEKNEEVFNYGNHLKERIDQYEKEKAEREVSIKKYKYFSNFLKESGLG

isotype control (Example 1, flow cytometry with full-length murine antibodies) (antibody)
MFI [1]: 90 | MFI [2]: 74
